From paper PMC12676778, “Long-tailed class I myosins rely on tail-mediated phosphoinositide recognition for specific membrane recruitment” (Cell Communication and Signaling : CCS, 2025)

Tests used:
Settings in all cases: both partners purified
F-actin [1] = molecular target: T1, F-actin (UniProt P68135 1-377); experiment: co-sedimentation; YFP fluorescence of pellet and supernatant; increasing F-actin concentrations; 5 mM Tris pH 7.4, 100 mM KCl, 0.04% NaN3, 2 mM MgCl2; 20,000 g, 30 min, 4 °C
F-actin [2] = molecular target: T1, F-actin; experiment: as above; remark: listed apart in the source
microtubules = microtubules (UniProt P02550 1-451, alpha/beta-tubulin heterodimer polymerised into paclitaxel-stabilised microtubules, GTP in the buffer. Source and isotypes not given); porcine brain tubulin (a natural isotype mixture with native mod); experiment: co-sedimentation; YFP fluorescence of pellet and supernatant; 100 mM PIPES pH 6.8, 2 mM MgCl2, 1 mM EGTA, 20 µM paclitaxel, 1 mM GTP; 20,000 g, 30 min, 30 °C; hyperbolic fit
Chain of microtubules (P02550 whole entry, chain 1 of 2): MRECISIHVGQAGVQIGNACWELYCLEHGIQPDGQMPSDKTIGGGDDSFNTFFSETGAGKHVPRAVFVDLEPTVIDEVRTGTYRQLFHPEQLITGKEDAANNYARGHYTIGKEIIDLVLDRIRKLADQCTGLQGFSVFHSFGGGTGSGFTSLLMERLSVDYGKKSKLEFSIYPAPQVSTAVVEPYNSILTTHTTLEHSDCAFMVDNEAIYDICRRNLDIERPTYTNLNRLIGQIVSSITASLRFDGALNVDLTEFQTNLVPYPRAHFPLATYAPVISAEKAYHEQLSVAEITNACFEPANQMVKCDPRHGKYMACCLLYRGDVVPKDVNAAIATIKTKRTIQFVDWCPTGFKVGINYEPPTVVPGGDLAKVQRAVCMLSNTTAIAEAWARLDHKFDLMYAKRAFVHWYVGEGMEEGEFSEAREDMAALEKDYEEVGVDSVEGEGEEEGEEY
Chain of microtubules (P02554 whole entry, chain 2 of 2, further chain): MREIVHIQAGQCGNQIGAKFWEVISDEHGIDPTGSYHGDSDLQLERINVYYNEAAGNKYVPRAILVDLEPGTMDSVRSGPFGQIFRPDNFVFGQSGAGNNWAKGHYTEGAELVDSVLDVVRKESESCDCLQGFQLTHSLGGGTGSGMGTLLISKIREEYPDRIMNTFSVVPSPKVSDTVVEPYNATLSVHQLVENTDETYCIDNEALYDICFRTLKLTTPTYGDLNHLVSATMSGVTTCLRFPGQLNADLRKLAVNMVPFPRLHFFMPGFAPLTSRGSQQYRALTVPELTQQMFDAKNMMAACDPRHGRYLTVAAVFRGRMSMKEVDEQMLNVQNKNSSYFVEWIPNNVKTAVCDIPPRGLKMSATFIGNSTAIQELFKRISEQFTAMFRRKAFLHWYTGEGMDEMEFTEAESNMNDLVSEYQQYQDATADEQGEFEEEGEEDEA

B1: myosin-1C tail (domain or fragment)
chain: RYWHDMASRIKNAYRNYKAFQFECSNRIKNAFRNYKLYRQRCAQTIQGYFRAWKQASPFFDLRMQNEQLFQGRKERNRFSMISVRKYFGDYLDVRSQSYFLDAMAEGRNEDVIFSSKSQVMVHPILSANKLSPRFLIVTKQAIYLIKLKQKKNLATYLLDRRVPLAEVTSFSLSSLADNLLVIHTSTQFDVAVTTEFKTELVALINKQKGTTLAVNFGQSIQYFKKKGSNNTVTFLKDEMHKEIFLKKNQFHIASGLPASTTVAKVRKNPSQVSTPSKPIAKPVAKPMVAKPSGGSVIMKKPAPAAPPSGPPVMKKPAPTAPGGAPMMKKPAPAPGGAPMMKKPAPVPGGPAPGGSAIMKPAGGVSKPLPSPTGAPMMKKPAPTAPGGPAPAGAPTPMMKKPAGQPMMKPIAKPQPTPMKKPAAPPPQQYIALYEYDAMQPDELTFKENDVINLIKKVDADWWQGELVRTKQIGMLPSNYVQQI
notes: Dictyostelium discoideum myosin-1C, tail; S3; also called YFP-myosin-1 tail; source: E. coli Rosetta pLys-S, purified (glutathione-Sepharose, size exclusion chromatography)
- Kd (F-actin [1]): 900 ± 400 nM
- Kd (F-actin [2]): 800 ± 80 nM

B2: myosin-1B tail (amino acids 717–1111) (domain or fragment, Dictyostelium discoideum, UniProt P34092 717-1111, looked up)
chain: QRAQIAHMFKDKKERQRNSIDRKFTSDYIDFENQFGLQEAMQNAHKKERVVFADTVIKIDRRAKQKNYEMVLTDQALYFVEKSIKKKVLVHTLIRRVGLREIKGVSISTLSDNVIVFHLPEHDQVIENDKKTEIIIVLVEYFKAIGGGSLNVQFSDRINYTLKKGEQKEISFQKSEQCPTLVVKKGGKGLIGTIASGLPSSTDSTPKNYNPNSMSQASSRPAPQQSAGRGRGMPQGAGQPQPQQPQQQQRPMPQPQQGGGARPMPQPQQGGGARPMGAPQQGGAPQQGAGRQLPQPTQQGGAPGGRGAPMGRGAPGGGPAGAGGRPLPTVAKPAPQPSRPTAKALYDYDASSTDELSFKEGDIIFIVQKDNGGWTQGELKSGQKGWAPTNYLQYN
notes: Dictyostelium discoideum myosin-1B, tail, amino acids 717-1111 (NCBI XM_631290.1); Cloned both into pGEX-6P2 (GST only) and pGEX-6P2-eYFP-mcs (GST and YFP); the actin and microtubule assays detect YFP; S3; also called YFP-myosin-1 tail; source: E. coli Rosetta pLys-S, purified (glutathione-Sepharose, size exclusion chromatography); not shown: YFP, C-terminal, kept
- Kd (microtubules): 900 ± 100 nM
- Kd (F-actin [2]): 6800 ± 200 nM

B3: myosin-1D tail-TH1 construct (aa 721–913) (domain or fragment, Dictyostelium discoideum, UniProt P34109 721-913, looked up)
chain: MKSNKERRRLSIERPYQGDYINYRENFELKDIVKKNGNEKIMFTHAVNKYDRRSRCQRRVLLLSDTAIYFIATEKNKDKEDRKKRPWIYVQKRRLLLAGITSVELSKLSDGFVVLKTMNEHDQIFECRRKTEFLGTLIKAYKTGTLRINYNNSIGVAIKASKQGGKGKERIILFEKGIKPGESVFKGTKVSTP
notes: Dictyostelium discoideum myosin-1D, TH1 domain only, aa 721-913; The methods describe cloning into pGEX-6P2 (GST only); the results call the construct YFP-tagged and the co-sedimentation detects YFP; S3; also called Myosin-1D-TH1; isolated TH1 domain; source: E. coli Rosetta pLys-S, purified (glutathione-Sepharose, size exclusion chromatography)
- Kd (microtubules): 3300 ± 200 nM
